The series concerns the molecule itself. The series can be described thus: SAXS.

We go through 1 protein from article PMC4968620 (Biochemistry, 2016).

B1: HsRXRαΔNTD (130-462) (domain or fragment)
chain: FTKHICAICGDRSSGKHYGVYSCEGCKGFFKRTVRKDLTYTCRDNKDCLIDKRQRNRCQYCRYQKCLAMGMKREAVQEERQRGKDRNENEVESTSSANEDMPVERILEAELAVEPKTETYVEANMGLNPSSPNDPVTNICQAADKQLFTLVEWAKRIPHFSELPLDDQVILLRAGWNELLIASFSHRSIAVKDGILLATGLHVHRNSAHSAGVGAIFDRVLTELVSKMRDMQMDKTELGCLRAIVLFNPDSKGLSNPAEVEALREKVYASLEAYCKHKYPEQPGRFAKLLLRLPALRSIGLKCLEHLFFFKLIGDTPIDTFLMEMLEAPHQMT
On to B1, for which the stoichiometry N – broadly, a count of units in the complex or per binding partner – amounted to 2.
